The target of one assay is T1, NT-REP4-CT.
T1 construct: also called NT4RepCT; NT-REP4-CT fiber
T1 chain: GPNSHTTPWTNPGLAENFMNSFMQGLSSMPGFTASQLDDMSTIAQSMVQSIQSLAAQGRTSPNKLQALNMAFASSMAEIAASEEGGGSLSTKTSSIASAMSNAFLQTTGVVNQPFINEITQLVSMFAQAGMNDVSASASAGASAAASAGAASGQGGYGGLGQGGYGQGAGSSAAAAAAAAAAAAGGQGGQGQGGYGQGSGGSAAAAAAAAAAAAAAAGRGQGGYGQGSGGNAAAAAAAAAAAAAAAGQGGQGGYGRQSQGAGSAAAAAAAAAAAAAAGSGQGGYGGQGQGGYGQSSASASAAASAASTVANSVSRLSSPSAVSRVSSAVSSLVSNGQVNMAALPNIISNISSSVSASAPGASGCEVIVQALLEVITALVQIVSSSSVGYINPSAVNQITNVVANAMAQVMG
The assay is described as follows: capture of soluble protein on fiber at pH 6, release at pH 7, SDS-PAGE; 300 mM NaCl decreased capture. The protocol: (§1) Fibers (˜0.5 cm long, ˜50 μg) of NT-REP₄-CT (SEQ ID NO 20), NT₂-REP₄-CT (SEQ ID NO 23) and REPO-CT (SEQ ID NO 2, control) were submerged in 100 μl solution of 5 mg/ml soluble NTHis (SEQ ID NO 32) or NT₂-Brichos (SEQ ID NO 34) at pH 8 for 10 minutes. The pH was decreased by addition of 400 μl sodium phosphate buffer (NaP) to pH 6 and incubated for 10 minutes to allow assembly of soluble NT to the fiber. The fibers were transferred to 500 μl of NaP at pH 6, and washed twice. Finally, the fibers were transferred to 500 μl of NaP at pH 7, and incubated 10 minutes to allow release of soluble NT. The same was done in the presence of 300 mM NaCl in all pH 6 NaP buffers. Samples from the different solutions were analysed on SDS-PAGE.

The target in a further assay is T2, NT2-REP4-CT.
T2 construct: also called NTNT-REP4-CT; HisNTNT4RepCT
T2 chain: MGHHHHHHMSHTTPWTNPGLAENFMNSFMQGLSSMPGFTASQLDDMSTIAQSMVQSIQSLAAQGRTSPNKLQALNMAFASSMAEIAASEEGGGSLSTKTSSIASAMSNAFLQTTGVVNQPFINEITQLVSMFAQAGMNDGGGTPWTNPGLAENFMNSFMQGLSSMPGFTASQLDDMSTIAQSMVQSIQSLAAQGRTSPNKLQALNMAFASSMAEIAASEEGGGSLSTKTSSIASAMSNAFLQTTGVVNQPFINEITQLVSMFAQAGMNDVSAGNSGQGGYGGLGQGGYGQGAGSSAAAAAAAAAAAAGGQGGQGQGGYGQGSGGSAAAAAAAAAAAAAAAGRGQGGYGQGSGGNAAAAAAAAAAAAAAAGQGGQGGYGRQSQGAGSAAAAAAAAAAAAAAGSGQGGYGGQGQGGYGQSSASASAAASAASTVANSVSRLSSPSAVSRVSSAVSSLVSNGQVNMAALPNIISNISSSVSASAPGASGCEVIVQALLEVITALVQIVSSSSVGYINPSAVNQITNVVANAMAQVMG
Described as above. The protocol:
as §1

B1: NT2-Brichos (other)
chain: MGHHHHHHMSHTTPWTNPGLAENFMNSFMQGLSSMPGFTASQLDDMSTIAQSMVQSIQSLAAQGRTSPNKLQALNMAFASSMAEIAASEEGGGSLSTKTSSIASAMSNAFLQTTGVVNQPFINEITQLVSMFAQAGMNDGGGTPWTNPGLAENFMNSFMQGLSSMPGFTASQLDDMSTIAQSMVQSIQSLAAQGRTSPNKLQALNMAFASSMAEIAASEEGGGSLSTKTSSIASAMSNAFLQTTGVVNQPFINEITQLVSMFAQAGMNDVSAGNSEHLVTTATFSIGSTGLVVYDYQQLLIAYKPAPGTCCYIMKIAPESIPSLEALTRKVHNFQMECSLQAKPAVPTSKLGQAEGRDAGSAPSGGDPAFLGMAVSTLCGEVPLYYI
notes: also called NT-NT-Brichos; HisNTNTBrichos
B1: the binding result with NT-REP4-CT and with NT2-REP4-CT was “binds” throughout.

B2: NTHis (other)
chain: MSHTTPWTNPGLAENFMNSFMQGLSSMPGFTASQLDDMSTIAQSMVQSIQSLAAQGRTSPNKLQALNMAFASSMAEIAASEEGGGSLSTKTSSIASAMSNAFLQTTGVVNQPFINEITQLVSMFAQAGMNDVSASASAGASAAASAGAAALEHHHHHH
notes: also called soluble NTHis; NT protein
Consider B2, for which the binding result with NT-REP4-CT and with NT2-REP4-CT was “binds” in each case.

The record behind these values is patent US20130065278A1 (SPIBER TECHNOLOGIES, published 2013).
